Test results reported in patent publication US20250019427A1 (BYOMASS, published 2025).
Positions count from the first letter of the chain named.

B1: Clone B IgG (antibody, V domains shown)
VH: QVQLQESGPGLVKPSQTLSLTCTVSGGSISSGGIYWTWIRQHPGKGLEWIGAIAYSGSTYYNPSLKSRVTISVDTSKNQFSLKLSSVTAADTAVYYCARGIEYQHFDYWGQGTLVTVSS
VL: not shown
notes: IgG format; AAGA mutation in the Fc region stated for the FcRn test; also called GDF15 antibody agent Clone B
B2: Clone A IgG (antibody, V domains shown)
VH: B1 VH with S30T, I34S, T37S, A54V, I101V
VL: not shown
notes: IgG format
B3: Clone C IgG (antibody, V domains shown)
VH: B1 VH with I34Y, T37S, A54V, S58H, I101V, D107S, Y108L
VL: not shown
notes: IgG format; AAGA mutation in the Fc region stated for the FcRn test; also called GDF15 antibody agent Clone C
B4: Clone D IgG (antibody, V domains shown)
VH: B1 VH with S30N, I34Y, A54Y, Y60V, I101V, D107N, Y108E
VL: not shown
notes: IgG format
B5: Clone G IgG (antibody, V domains shown)
VH: QVQLVQSGAEVKKPGSSVKVSCKASGGTFQGYAISWARQAPGQGLEWMGGIIPPYATANYAQKFQGRVTITADESTSTAYMELSSLRSEDTAVYYCARGVGELHLDVWGQGTMVTVSS
VL: not shown
notes: IgG format

How the values were obtained:
[1] = target: T1, GDF15 (Homo sapiens (Human), UniProt Q99988 30-308); experiment: cell-based or functional assay
T1 sequence: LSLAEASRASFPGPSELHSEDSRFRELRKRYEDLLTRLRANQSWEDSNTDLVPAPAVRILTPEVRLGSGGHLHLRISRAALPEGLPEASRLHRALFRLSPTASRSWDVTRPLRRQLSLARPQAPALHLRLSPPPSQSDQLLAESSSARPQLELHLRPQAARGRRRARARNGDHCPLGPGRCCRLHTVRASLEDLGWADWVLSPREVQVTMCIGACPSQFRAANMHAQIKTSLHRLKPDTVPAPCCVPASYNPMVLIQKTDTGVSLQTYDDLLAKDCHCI

[2] = target: T2, GDNF (UniProt P39905 78-211); experiment: Octet BLI, IgG on tip, avid
T2 sequence (looked up): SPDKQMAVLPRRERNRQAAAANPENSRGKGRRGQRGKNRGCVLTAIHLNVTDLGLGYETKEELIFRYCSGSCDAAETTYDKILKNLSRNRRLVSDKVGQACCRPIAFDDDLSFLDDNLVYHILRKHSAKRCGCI

[3] = target: GDF8 (UniProt O14793 267-375); experiment: Octet BLI, IgG on tip, avid
[4] = target: T3, GDF10 (UniProt P55107 369-478); experiment: Octet BLI, IgG on tip, avid
T3 sequence (looked up): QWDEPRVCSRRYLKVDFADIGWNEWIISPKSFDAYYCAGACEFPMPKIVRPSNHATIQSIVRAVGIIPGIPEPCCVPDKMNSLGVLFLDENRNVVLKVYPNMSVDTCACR

[5] = target: T4, GDF11 (UniProt O95390 299-407); experiment: Octet BLI, IgG on tip, avid
T4 construct: Also the GDF-11 ligand of the ActRIIB/SMAD reporter assay

[6] = target: T5, Human Activin B (human, UniProt P09529 293-407); experiment: Octet BLI, IgG on tip, avid
T5 construct: Also used for the Activin B ligand of the ActRIIB/SMAD reporter assay, where the species is not restated
T5 sequence (looked up): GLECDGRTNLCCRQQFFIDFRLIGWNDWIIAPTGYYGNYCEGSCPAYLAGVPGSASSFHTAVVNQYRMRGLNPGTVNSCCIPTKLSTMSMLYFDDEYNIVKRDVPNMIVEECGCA

[7] = target: T6, Cyno GDF15 Fc (cyno, UniProt G7PWZ3 193-308); experiment: Octet BLI, IgG on AHC tip, avid
T6 construct: also called cyno GDF15-Fc fusion
T6 sequence: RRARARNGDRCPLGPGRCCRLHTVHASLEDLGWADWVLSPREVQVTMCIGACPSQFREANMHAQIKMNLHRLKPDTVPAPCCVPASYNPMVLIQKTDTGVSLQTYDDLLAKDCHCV
Procedure: (§1) Briefly, ForteBio affinity measurements were performed by loading IgGs on-line onto AHC sensors. Sensors were equilibrated off-line in assay buffer for 30 min and then monitored on-line for 60 seconds for baseline establishment. Sensors with loaded IgGs were exposed to 100 nM antigen for 3 minutes, and afterwards were transferred to assay buffer for 3 min for off-rate measurement. All kinetics were analyzed using the 1:1 binding model.

[8] = target: T7, Mouse GDF15 Fc (mouse, UniProt Q9Z0J7 189-303, limits assumed); experiment: Octet BLI, IgG on AHC tip, avid
T7 construct: also called mouse GDF15Fc fusion
T7 sequence (looked up): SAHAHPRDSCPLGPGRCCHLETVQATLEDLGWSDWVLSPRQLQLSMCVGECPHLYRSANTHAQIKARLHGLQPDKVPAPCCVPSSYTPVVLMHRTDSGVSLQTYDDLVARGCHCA
Procedure: as §1

[9] = target: T8, Rat GDF-15 Fc (rat, UniProt Q9Z0J6 189-303, limits assumed); experiment: Octet BLI, IgG on AHC tip, avid
T8 sequence (looked up): T7 sequence (looked up) with A4L, Q63L, K75R, R110Q
Procedure: as §1

[10] = target: T9, Human BMP9 (human, UniProt Q9UK05 320-429); experiment: Octet BLI, IgG on tip, avid; P.F. = binder with poor fit
T9 sequence (looked up): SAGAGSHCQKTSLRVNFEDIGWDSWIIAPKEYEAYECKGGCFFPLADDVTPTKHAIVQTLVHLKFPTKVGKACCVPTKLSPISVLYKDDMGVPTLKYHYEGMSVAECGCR

[11] = target: T10, Human Activin A Fc (human, UniProt P08476 311-426); experiment: Octet BLI, IgG on tip, avid
T10 sequence (looked up): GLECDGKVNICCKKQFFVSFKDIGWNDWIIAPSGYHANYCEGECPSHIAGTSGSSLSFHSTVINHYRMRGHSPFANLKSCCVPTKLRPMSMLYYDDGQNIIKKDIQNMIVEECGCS

[12] = target: T3, GDF10; experiment: Octet BLI, IgG on tip, avid; P.F. = binder with poor fit
[13] = target: T11, Human BMP10 (human, UniProt O95393 317-424); experiment: as above
T11 sequence (looked up): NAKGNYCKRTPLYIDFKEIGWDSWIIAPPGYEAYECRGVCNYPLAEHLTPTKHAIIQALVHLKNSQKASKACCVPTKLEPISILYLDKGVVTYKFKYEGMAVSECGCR

[14] = target: T11, Human BMP10; experiment: Octet BLI, IgG on tip, avid

T4 sequence (O95390 299-407 limits assumed): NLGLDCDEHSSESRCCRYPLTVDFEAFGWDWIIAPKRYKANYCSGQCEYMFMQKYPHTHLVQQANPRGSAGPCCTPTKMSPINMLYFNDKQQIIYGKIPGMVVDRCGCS

Binder	GDF15 - GFRAL RET pERK IC50 (pM) [1]	GDF15 - GFRAL-RET Luciferase IC50 (pM) [1]	binding result [2]	binding result [3]	binding result [4]	binding result [5]	Kd [6]	Kd [7]	Kd [8]	Kd [9]	binding result [10]	Kd [11]	binding result [6]	binding result [12]	binding result [13]	binding result [14]	Kd [4]	binding result [11]
B1	104 pM	66.2 pM	no binding (tested: 100 nM)	no binding (tested: 100 nM)	no binding (tested: 100 nM)	no binding (tested: 100 nM)	145 nM	0.422 nM	0.358 nM	0.621 nM	binds							
B2	102 pM	75 pM	no binding (tested: 100 nM)	no binding (tested: 100 nM)		no binding (tested: 100 nM)					binds	7.34 nM	no binding (tested: 100 nM)	binds	binds			
B3	145 pM	39.6 pM	no binding (tested: 100 nM)	no binding (tested: 100 nM)		no binding (tested: 100 nM)	132 nM	0.0862 nM	0.331 nM	0.437 nM	binds	6.48 nM				no binding (tested: 100 nM)		
B4	50.4 pM	58.7 pM	no binding (tested: 100 nM)	no binding (tested: 100 nM)		no binding (tested: 100 nM)		0.141 nM	0.299 nM	0.467 nM	binds	7.87 nM	no binding (tested: 100 nM)	binds		no binding (tested: 100 nM)		
B5	66.7 pM	97.1 pM	no binding (tested: 100 nM)	no binding (tested: 100 nM)		no binding (tested: 100 nM)		0.107 nM	0.191 nM	1.01 nM	binds		no binding (tested: 100 nM)		binds		36.8 nM	no binding (tested: 100 nM)
